Assay results as given in PMC4489804.

Target: DCP1-CFP (Arabidopsis thaliana) (UniProt Q9SJF3)
Test: FRET or BRET; FRET acceptor photobleaching in transiently transfected Arabidopsis leaf epidermis cells; DCP1-CFP donor, YFP-gSPI or free YFP acceptor, 35S promoter; whole cells and stationary P-bodies measured

Chain of UniProt Q9SJF3 (Q9SJF3 whole entry): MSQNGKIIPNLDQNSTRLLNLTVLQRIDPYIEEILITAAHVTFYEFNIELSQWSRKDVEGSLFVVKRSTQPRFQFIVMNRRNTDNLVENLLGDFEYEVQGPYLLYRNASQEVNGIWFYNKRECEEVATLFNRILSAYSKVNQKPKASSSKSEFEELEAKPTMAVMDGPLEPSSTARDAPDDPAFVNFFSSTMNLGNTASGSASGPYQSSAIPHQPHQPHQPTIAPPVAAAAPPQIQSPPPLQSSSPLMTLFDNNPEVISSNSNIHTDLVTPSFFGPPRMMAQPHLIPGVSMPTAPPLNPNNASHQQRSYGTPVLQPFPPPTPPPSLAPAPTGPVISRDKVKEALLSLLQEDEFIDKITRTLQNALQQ

In the case of “YFP-tagged full-length genomic SPI, F4HZB2 1-3601”, the FRET efficiency (FRETE), immobile P-bodies is reported as 23% and the FRET efficiency (FRETE), whole cells is reported as 27%.
